This note sets out measurements from article PMC3593554.

In the assay the target is formyl peptide receptor (FPR1) on U87 astrocytoma cells (human (endogenous in U87)) (UniProt P21462). Nature of the assay: flow cytometry on cells. In general terms: In flow cytometry, cells or beads pass a laser one at a time.
Sequence of UniProt P21462 (P21462 whole entry): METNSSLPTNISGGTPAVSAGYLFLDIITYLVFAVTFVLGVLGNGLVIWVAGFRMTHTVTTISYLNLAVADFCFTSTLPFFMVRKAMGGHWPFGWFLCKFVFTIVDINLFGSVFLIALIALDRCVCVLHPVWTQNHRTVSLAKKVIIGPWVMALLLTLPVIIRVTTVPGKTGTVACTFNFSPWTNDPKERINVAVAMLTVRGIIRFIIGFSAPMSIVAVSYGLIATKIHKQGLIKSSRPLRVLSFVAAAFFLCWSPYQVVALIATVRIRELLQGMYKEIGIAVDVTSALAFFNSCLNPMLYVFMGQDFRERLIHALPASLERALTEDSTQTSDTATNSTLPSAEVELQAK

“Chemotaxis Inhibitory Protein of S. aureus (CHIPS) (from UniProt A6QIG7 29-149) (natural protein)” displayed a percent inhibition of fMLF-FITC binding at 100 ug/ml CHIPS of 81%.
